According to patent US20240269235A1 (Gilead, published 2024):

Molecular target: T1, IL-2Rαβγ on KHYG-1 cells (human NK leukemia cell line that expresses IL-2Rα, β, and γ) (human, UniProt P01589 22-272; P14784 27-551; P31785 23-369)
T1 sequence (looked up) 1: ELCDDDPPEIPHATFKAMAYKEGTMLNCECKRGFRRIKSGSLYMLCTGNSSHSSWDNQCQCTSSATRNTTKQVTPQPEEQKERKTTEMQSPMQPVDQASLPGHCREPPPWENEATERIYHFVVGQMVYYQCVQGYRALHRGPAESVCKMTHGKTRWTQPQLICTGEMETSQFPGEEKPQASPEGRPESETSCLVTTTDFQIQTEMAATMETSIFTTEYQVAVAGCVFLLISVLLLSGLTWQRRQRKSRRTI
T1 sequence (looked up) 2: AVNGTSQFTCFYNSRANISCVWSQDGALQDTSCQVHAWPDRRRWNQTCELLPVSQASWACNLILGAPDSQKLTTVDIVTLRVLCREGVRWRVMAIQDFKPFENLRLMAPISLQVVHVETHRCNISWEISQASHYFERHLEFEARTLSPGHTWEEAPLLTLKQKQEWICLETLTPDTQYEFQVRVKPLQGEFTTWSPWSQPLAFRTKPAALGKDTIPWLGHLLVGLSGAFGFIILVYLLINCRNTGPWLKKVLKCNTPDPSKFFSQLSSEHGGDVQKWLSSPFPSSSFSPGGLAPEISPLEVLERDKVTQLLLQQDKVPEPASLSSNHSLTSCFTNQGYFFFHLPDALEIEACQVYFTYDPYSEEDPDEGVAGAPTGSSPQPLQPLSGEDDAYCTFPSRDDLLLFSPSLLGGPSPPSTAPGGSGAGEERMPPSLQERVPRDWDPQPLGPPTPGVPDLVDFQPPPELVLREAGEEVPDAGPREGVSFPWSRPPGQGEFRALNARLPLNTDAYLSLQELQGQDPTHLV
T1 sequence (looked up) 3: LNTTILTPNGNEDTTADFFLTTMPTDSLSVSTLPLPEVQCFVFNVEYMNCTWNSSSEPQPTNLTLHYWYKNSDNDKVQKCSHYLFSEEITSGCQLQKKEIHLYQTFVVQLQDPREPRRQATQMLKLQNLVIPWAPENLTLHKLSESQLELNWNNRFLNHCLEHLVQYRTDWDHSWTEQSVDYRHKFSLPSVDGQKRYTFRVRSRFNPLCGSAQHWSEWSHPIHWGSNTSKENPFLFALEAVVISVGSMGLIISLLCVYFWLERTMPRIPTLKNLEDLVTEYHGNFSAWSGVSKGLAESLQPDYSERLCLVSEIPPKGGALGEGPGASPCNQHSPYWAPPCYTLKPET
Test: cell-based or functional assay

Proliferation of KHYG-1 NK cells, EC50: 16 pM
B1: Fc-IL-2 heterodimer 117.46 (hIL-2v_Δ1-5_C125S), native IL-2Rα binding interface (Fc fusion)
chain 1: ESKYGPPCPPCPAPEAAGGPSVFLFPPKPKDTLMISRTPEVTCVVVDVSQEDPEVQFNWYVDGVEVHNAKTKPREEQFNSTYRVVSVLTVLHQDWLNGKEYKCKVSNKGLPSSIEKTISKAKGQPREPQVYTLPPSQEEMTKNQVSLWCLVKGFYPSDIAVEWESNGQPENNYKTTPPVLDSDGSFFLYSRLTVDKSRWQEGNVFSCSVMHEALHNHYTQKSLSLSLGGGGGSGGGGSGGGGSGGGGSSTKKTQLQLEHLLLDLQMILNGINNYKNPKLTRMLTFKFYMPKKATELKHLQCLEEELKPLEEVLNLAQSKNFHLRPRDLISNINVIVLELKGSETTFMCEYADETATIVEFLNRWITFSQSIISTLT
chain 2: ESKYGPPCPPCPAPEAAGGPSVFLFPPKPKDTLMISRTPEVTCVVVDVSQEDPEVQFNWYVDGVEVHNAKTKPREEQFNSTYRVVSVLTVLHQDWLNGKEYKCKVSNKGLPSSIEKTISKAKGQPREPQVYTLPPSQEEMTKNQVSLSCAVKGFYPSDIAVEWESNGQPENNYKTTPPVLDSDGSFFLVSRLTVDKSRWQEGNVFSCSVMHEALHNRFTQKSLSLSLGK
notes: hIgG4 knob-in-hole Fc heterodimer
